T1: Sox10 (rat, UniProt O55170 1-466)
T1 sequence (looked up): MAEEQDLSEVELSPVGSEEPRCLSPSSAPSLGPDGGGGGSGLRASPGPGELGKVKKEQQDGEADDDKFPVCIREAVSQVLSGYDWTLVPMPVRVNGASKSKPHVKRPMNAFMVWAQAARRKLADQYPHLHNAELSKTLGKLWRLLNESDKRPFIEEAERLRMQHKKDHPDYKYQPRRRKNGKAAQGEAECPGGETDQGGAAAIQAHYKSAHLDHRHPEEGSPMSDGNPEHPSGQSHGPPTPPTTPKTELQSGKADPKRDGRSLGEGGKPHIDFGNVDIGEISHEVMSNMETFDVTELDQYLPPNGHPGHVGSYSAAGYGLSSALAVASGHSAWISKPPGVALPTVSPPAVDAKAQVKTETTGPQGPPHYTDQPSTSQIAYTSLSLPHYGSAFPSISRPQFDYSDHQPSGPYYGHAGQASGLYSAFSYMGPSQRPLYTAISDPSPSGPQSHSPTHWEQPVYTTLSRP

B1: Twist1 (natural protein, UniProt P26687 1-206, looked up)
chain: MMQDVSSSPVSPADDSLSNSEEEPDRQQPASGKRGARKRRSSRRSAGGSAGPGGATGGGIGGGDEPGSPAQGKRGKKSAGGGGGGGAGGGGGGGGGSSSGGGSPQSYEELQTQRVMANVRERQRTQSLNEAFAALRKIIPTLPSDKLSKIQTLKLAARYIDFLYQVLQSDELDSKMASCSYVAHERLSYAFSVWRMEGAWSMSASH
B2: Twist1 S192P (natural protein, UniProt P26687 1-206, looked up)
chain: MMQDVSSSPVSPADDSLSNSEEEPDRQQPASGKRGARKRRSSRRSAGGSAGPGGATGGGIGGGDEPGSPAQGKRGKKSAGGGGGGGAGGGGGGGGGSSSGGGSPQSYEELQTQRVMANVRERQRTQSLNEAFAALRKIIPTLPSDKLSKIQTLKLAARYIDFLYQVLQSDELDSKMASCSYVAHERLSYAFPVWRMEGAWSMSASH

Biological target: T1, Sox10
Test: cell-based or functional assay

Row | Binder | luciferase transactivation of the Phox2b promoter by Sox10 in HeLa cells with Twist1 co-expressed (Sox10 alone 48.9+/−2.2-fold) | luciferase transactivation of the Phox2b promoter by Sox10 in HeLa cells with Twist1 S192P co-expressed (Sox10 alone 48.9+/−2.2-fold)
1 | B1 | 26.3 fold | –
2 | B2 | – | 49.3 fold
